Reference: article PMC10294715, “Single-cell RNA-seq uncovers dynamic processes orchestrated by RNA-binding protein DDX43 in chromatin remodeling during spermiogenesis”

Molecular target: DDX43-KI (Mus musculus, UniProt D3Z6P9 1-646, E395Q)
Test: EMSA; EMSA: 10 nM biotin-RNA, 50 mM Tris-HCl pH 7.5, 100 mM KCl, 2.5% glycerol, 0.05% NP-40, 4 mM EDTA, 1 mM DTT, RiboLock 2 U, 37 C 30 min; 8% native TBE PAGE at 4 C; G4 folded in 50 mM Tris-HCl pH 7.5, 150 mM KCl, 0.1 mM EDTA
Settings: protein: recombinant; tags: His tag (Ni-NTA, pET28a); label: 3' biotin; single strand

Chain of DDX43-KI (D3Z6P9 entry or part of it E395Q): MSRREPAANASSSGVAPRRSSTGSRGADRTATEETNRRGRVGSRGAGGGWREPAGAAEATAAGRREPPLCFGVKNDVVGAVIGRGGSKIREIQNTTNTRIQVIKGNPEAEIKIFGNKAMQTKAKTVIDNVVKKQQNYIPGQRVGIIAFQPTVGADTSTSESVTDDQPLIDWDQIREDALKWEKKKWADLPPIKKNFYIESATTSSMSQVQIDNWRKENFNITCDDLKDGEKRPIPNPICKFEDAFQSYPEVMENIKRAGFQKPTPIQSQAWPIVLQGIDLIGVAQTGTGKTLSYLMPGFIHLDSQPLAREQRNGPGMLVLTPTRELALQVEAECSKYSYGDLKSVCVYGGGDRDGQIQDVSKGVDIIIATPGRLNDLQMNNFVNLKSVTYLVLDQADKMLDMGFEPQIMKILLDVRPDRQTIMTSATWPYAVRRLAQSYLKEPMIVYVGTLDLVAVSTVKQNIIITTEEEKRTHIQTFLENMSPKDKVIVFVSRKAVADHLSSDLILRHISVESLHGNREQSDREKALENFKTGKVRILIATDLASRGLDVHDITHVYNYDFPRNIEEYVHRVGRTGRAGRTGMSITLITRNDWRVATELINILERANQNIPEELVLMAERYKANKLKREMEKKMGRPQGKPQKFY

B1: ssRNA (ssRNA)
RNA: ACCGCUGCCGUCGCUCCG
- binding result: no binding
